The target of this experiment is T1, recombinant human ROR1 extracellular domain (human, UniProt Q01973 30-406).
T1 construct: biotinylated for the filter lifts; also called huROR1-ECD; human ROR1-ECD
In words: ELISA, soluble Fab on coated huROR1-ECD. How it is done:
The previously described filter lift assay provides a visual, qualitative assessment of antigen binding (Example 1). In order to assess the ROR1 binding activity of Ab1 Fab in a more quantitative fashion, an ELISA assay was developed. A 96-well Costar-3366 plate was coated with 50 μL/well of 1 μg/mL human ROR1-ECD (ACROBiosystems, cat. #RO1-H522y) in PBS overnight at 4° C. The plate was rinsed once with PBS-T and blocked with 100 μL/well of 5% M-P for 1 h at 25° C. Fab samples were serially diluted 3-fold using 5% M-P and 50 μL/well was incubated for 1 h at 25° C. The plate was washed three times with PBS-T and 50 μL/well anti-human kappa, and HRP conjugate (Southern Biotech, cat. #2060-05) diluted 10,000-fold in 5% M-P was added for 1 h at 25° C. In certain assays (extended wash format), the plate was placed in large volumes (up to 1 L) of PBS-T and incubated, with mixing, for 2-5 h prior to the addition of anti-human kappa, HRP conjugate. The plate was washed three times with PBS-T, and developed with 50 μL/well 1-Step Ultra TMB-ELISA (Thermo Scientific, cat. #34028). The reaction was terminated by the addition of 2 N H2504 and the A450 was determined using a Spectramax plate reader.
(In general: ELISA stands for enzyme-linked immunosorbent assay.)

Residue numbers refer to the chain shown, from its start.

T1 sequence (Q01973 30-406 limits assumed): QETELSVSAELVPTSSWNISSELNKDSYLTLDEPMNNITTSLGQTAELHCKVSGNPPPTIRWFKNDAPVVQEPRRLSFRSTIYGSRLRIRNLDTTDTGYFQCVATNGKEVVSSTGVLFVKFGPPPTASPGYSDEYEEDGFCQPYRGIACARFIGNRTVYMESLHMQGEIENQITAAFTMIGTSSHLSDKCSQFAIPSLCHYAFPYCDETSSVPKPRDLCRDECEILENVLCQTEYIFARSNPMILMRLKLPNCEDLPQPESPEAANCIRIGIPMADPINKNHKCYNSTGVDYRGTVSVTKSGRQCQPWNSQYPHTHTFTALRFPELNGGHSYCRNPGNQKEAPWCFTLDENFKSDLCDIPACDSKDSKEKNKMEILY

B1: Ab1 Fab variant H1 A30P (Fab, V domains shown)
VH: QVQLQESGPGLVKPSQTLSLTCTVSGYPFTAYNIHWVRQAPGQGLEWMGSFDPYDGGSSYNQKFKDRLTISKDTSKNQVVLTMTNMDPVDTATYYCARGWYYFDYWGHGTLVTVSS
VL: DIVMTQTPLSLPVTPGEPASISCRASKSISKYLAWYQQKPGQAPRLLIYSGSTLQSGIPPRFSGSGYGTDFTLTINNIESEDAAYYFCQQHDESPYTFGEGTKVEIK
notes: Fab
With B1, the Kd (as a rule, the equilibrium constant for the complex coming apart) was 12 nM.

B2: Ab1 Fab variant H2 G66N (Fab, V domains shown)
VH: B1 VH with P28A, G56N
VL: B1 VL
notes: Fab
For the molecule B2, the Kd came to 2.2 nM.

B3: Ab1 Fab variant H2 G67R (Fab, V domains shown)
VH: B1 VH with P28A, G57R
VL: B1 VL
notes: Fab
With B3, the Kd worked out at 1.7 nM.

B4: Ab1 Fab variant L1 L41M (Fab, V domains shown)
VH: B1 VH with P28A
VL: B1 VL with L33M
notes: Fab
Take B4: the Kd came out at 1.3 nM.

B5: Ab1 Fab variant H2 S68T (Fab, V domains shown)
VH: B1 VH with P28A, S58T
VL: B1 VL
notes: Fab
B5: the Kd worked out at 6.4 nM.

B6: Ab1 Fab variant H2 F58V (Fab, V domains shown)
VH: B1 VH with P28A, F51V
VL: B1 VL
notes: Fab
Regarding B6, the Kd amounted to 0.9 nM.

B7: Ab1 Fab variant H1 A30T (Fab, V domains shown)
VH: B1 VH with P28T
VL: B1 VL
notes: Fab
For the molecule B7, the Kd came to 16 nM.

B8: Ab1 Fab variant H1 Y39W (Fab, V domains shown)
VH: B1 VH with P28A, Y32W
VL: B1 VL
notes: Fab
Turning to B8, the Kd was determined as 3.3 nM.

B9: Ab1 Fab variant H2 G67Q (Fab, V domains shown)
VH: B1 VH with P28A, G57Q
VL: B1 VL
notes: Fab
For B9, the Kd is below 1 nM.

B10: Ab1 Fab variant H2 N71G (Fab, V domains shown)
VH: B1 VH with P28A, N61G
VL: B1 VL
notes: Fab
With B10, the Kd was 1.5 nM.

B11: Ab1 Fab variant H2 G67P (Fab, V domains shown)
VH: B1 VH with P28A, G57P
VL: B1 VL
notes: Fab
Regarding B11, the Kd was found to be 0.6 nM.

B12: Ab1 Fab variant H2 S69V (Fab, V domains shown)
VH: B1 VH with P28A, S59V
VL: B1 VL
notes: Fab
B12: the Kd came to 1 nM.

B13: Ab1 Fab variant L1 I31V (Fab, V domains shown)
VH: B1 VH with P28A
VL: B1 VL with I29V
notes: Fab
As for B13, the Kd came out at 2.8 nM.

B14: Ab1 Fab variant H2 D65E (Fab, V domains shown)
VH: B1 VH with P28A, D55E
VL: B1 VL
notes: Fab
With B14, the Kd was 4.9 nM.

B15: Ab1 Fab variant H2 S69K (Fab, V domains shown)
VH: B1 VH with P28A, S59K
VL: B1 VL
notes: Fab
For the molecule B15, the Kd came to 46 nM.

B16: Ab1 Fab variant L1 K29S (Fab, V domains shown)
VH: B1 VH with P28A
VL: B1 VL with K27S
notes: Fab
Take B16: the Kd came out at 0.9 nM.

B17: Ab1 Fab variant H2 Y70I (Fab, V domains shown)
VH: B1 VH with P28A, Y60I
VL: B1 VL
notes: Fab
Take B17: the Kd was found to be 1.7 nM.

B18: Ab1 Fab variant L1 K29E (Fab, V domains shown)
VH: B1 VH with P28A
VL: B1 VL with K27E
notes: Fab
In the case of B18, the Kd was 1.2 nM.

B19: Ab1 Fab variant L1 A25P (Fab, V domains shown)
VH: B1 VH with P28A
VL: B1 VL with A25P
notes: Fab
With B19, the Kd worked out at 0.7 nM.

B20: Ab1 Fab variant H2 D76V (Fab, V domains shown)
VH: B1 VH with P28A, D66V
VL: B1 VL
notes: Fab
B20: the dissociation constant (Kd) was 1.8 nM.

B21: Ab1 Fab variant H2 G66D (Fab, V domains shown)
VH: B1 VH with P28A, G56D
VL: B1 VL
notes: Fab
On to B21, for which the Kd is 2.2 nM.

B22: Ab1 Fab variant H2 G66E (Fab, V domains shown)
VH: B1 VH with P28A, G56E
VL: B1 VL
notes: Fab
With B22, the Kd was determined as 0.9 nM.

B23: Ab1 Fab variant H2 N71H (Fab, V domains shown)
VH: B1 VH with P28A, N61H
VL: B1 VL
notes: Fab
Take B23: the Kd is 1.1 nM.

B24: Ab1 Fab variant H1 F31I (Fab, V domains shown)
VH: B1 VH with P28A, F29I
VL: B1 VL
notes: Fab
B24: the Kd was found to be 5.8 nM.

B25: Ab1 Fab variant H2 S68A (Fab, V domains shown)
VH: B1 VH with P28A, S58A
VL: B1 VL
notes: Fab
On to B25, for which the equilibrium dissociation constant (Kd) worked out at 1.2 nM.

B26: Ab1 Fab variant H2 N71S (Fab, V domains shown)
VH: B1 VH with P28A, N61S
VL: B1 VL
notes: Fab
Turning to B26, the Kd is 1.2 nM.

B27: Ab1 Fab variant H1 Y29G (Fab, V domains shown)
VH: B1 VH with Y27G, P28A
VL: B1 VL
notes: Fab
Take B27: the Kd was 7.1 nM.

B28: Ab1 Fab variant H1 A33M (Fab, V domains shown)
VH: B1 VH with P28A, A31M
VL: B1 VL
notes: Fab
On to B28, for which the Kd stood at 15 nM.

B29: Ab1 Fab variant H2 F58I (Fab, V domains shown)
VH: B1 VH with P28A, F51I
VL: B1 VL
notes: Fab
B29: the Kd is 1.8 nM.

B30: Ab1 Fab variant H2 G66H (Fab, V domains shown)
VH: B1 VH with P28A, G56H
VL: B1 VL
notes: Fab
In the case of B30, the Kd was found to be 1.4 nM.

B31: Ab1 Fab variant H1 N40P (Fab, V domains shown)
VH: B1 VH with P28A, N33P
VL: B1 VL
notes: Fab
Consider B31, for which the Kd was determined as 40 nM.

B32: Ab1 Fab variant H1 F31V (Fab, V domains shown)
VH: B1 VH with P28A, F29V
VL: B1 VL
notes: Fab
In the case of B32, the Kd turned out to be 8.3 nM.

B33: Ab1 Fab variant H2 G67K (Fab, V domains shown)
VH: B1 VH with P28A, G57K
VL: B1 VL
notes: Fab
Turning to B33, the Kd was 2.3 nM.

B34: Ab1 Fab variant H2 S69E (Fab, V domains shown)
VH: B1 VH with P28A, S59E
VL: B1 VL
notes: Fab
In the case of B34, the Kd amounted to 1.2 nM.

B35: Ab1 Fab variant H1 A33S (Fab, V domains shown)
VH: B1 VH with P28A, A31S
VL: B1 VL
notes: Fab
On to B35, for which the Kd was determined as 11 nM.

B36: Ab1 Fab variant H2 G67Y (Fab, V domains shown)
VH: B1 VH with P28A, G57Y
VL: B1 VL
notes: Fab
Take B36: the Kd turned out to be 6.3 nM.

B37: Ab1 Fab variant H1 G27N (Fab, V domains shown)
VH: B1 VH with G26N, P28A
VL: B1 VL
notes: Fab
Regarding B37, the Kd stood at 8.4 nM.

B38: Ab1 Fab variant H2 Y70V (Fab, V domains shown)
VH: B1 VH with P28A, Y60V
VL: B1 VL
notes: Fab
For B38, the Kd is 1.5 nM.

B39: Ab1 Fab variant H2 N71A (Fab, V domains shown)
VH: B1 VH with P28A, N61A
VL: B1 VL
notes: Fab
Regarding B39, the Kd amounted to 1.3 nM.

B40: Ab1 Fab variant H1 Y39F (Fab, V domains shown)
VH: B1 VH with P28A, Y32F
VL: B1 VL
notes: Fab
Take B40: the Kd amounted to 5.7 nM.

B41: Ab1 Fab variant L1 L41V (Fab, V domains shown)
VH: B1 VH with P28A
VL: B1 VL with L33V
notes: Fab
Regarding B41, the Kd was found to be 1.1 nM.

(Values after US20230021388A1 (VELOSBIO, published 2023).)
